Here are results for 2 proteins from publication PMC10226595 (The Plant Cell, 2023).

A word on the stoichiometry N: it is the number of molecules, sites or subunits per partner or assembly.

The series deals with the molecule itself. Briefly: single-molecule pull-down.

B1: PHB-Delta, YFP-tagged (PHB with the START domain replaced by the 21-nt miR166 recognition site) (natural protein)
chain: MMMVHSMSRDMMNRESPDKGLDSGKYVRYTPEQVEALERVYTECPKPSSLRRQQLIRECPILSNIEPKQIKVWFQNRRCREKQRKEAARLQTVNRKLNAMNKLLMEENDRLQKQVSNLVYENGHMKHQLHTASGTTTDNSCESVVVSGQQHQQQNPNPQHQQRDAGMKPGPDVRQIAQETSGEVQYGGGRQPAVLRTFSQRLCRGFNDAVNGFVDDGWSPMGSDGAEDVTVMINLSPGKFGGSQYGNSFLPSFGSGVLCAKASMLLQNVPPAVLVRFLREHRSEWADYGVDAYAAASLRASPFAVPCARAGGFPSNQVILPLAQTVEHEESLEVVRLEGHAYSPEDMGLARDMYLLQLCSGVDENVVGGCAQLVFAPIDESFADDAPLLPSGFRIIPLEQKSTPNGASANRTLDLASALEGSTRQAGEADPNGCNFRSVLTIAFQFTFDNHSRDSVASMARQYVRSIVGSIQRVALAIAPRPGSNISPISVPTSPEALTLVRWISRSYSLHTGADLFGSDSQTSGDTLLHQLWNHSDAILCCSLKTNASPVFTFANQTGLDMLETTLVALQDIMLDKTLDEPGRKALCSEFPKIMQQGYAHLPAGVCASSMGRMVSYEQATVWKVLEDDESNHCLAFMFVNWSFV
B1: the “stoichiometry N” value worked out at 2.

B2: PHB-SDmut, YFP-tagged (PHB with mutated START domain) (natural protein)
chain: MMMVHSMSRDMMNRESPDKGLDSGKYVRYTPEQVEALERVYTECPKPSSLRRQQLIRECPILSNIEPKQIKVWFQNRRCREKQRKEAARLQTVNRKLNAMNKLLMEENDRLQKQVSNLVYENGHMKHQLHTASGTTTDNSCESVVVSGQQHQQQNPNPQHQQRDANNPAGLLSIAEEALAEFLSKATGTAVDWVQMIGMKPGPDSIGIVAISRNCSGIAARACGLVSLEPMKVAEILKDRPSWLRDCRSVDTLSVIPAGNGGTIELIYTQMYAPTTLAAAGAVVGAGYSTCLEDGSYVVCERSLTSATGGPTGPPSSNFVVAAGVPSGFLIRPCDGGGSILHIVDHVDLDAWSVPEVMRPLYESSKILAQKMTVAALRHVRQIAQETSGEVQYGGGRQPAVLRTFSQRLCRGFNDAVNGFVDDGWSPMGSDGAEDVTVMINLSPGKFGGSQYGNSFLPSFGSGVLCAKASMLLQNVPPAVLVRFLREHRSEWADYGVDAYAAASLRASPFAVPCARAGGFPSNQVILPLAQTVEHEESLEVVRLEGHAYSPEDMGLARDMYLLQLCSGVDENVVGGCAQLVFAPIDESFADDAPLLPSGFRIIPLEQKSTPNGASANRTLDLASALEGSTRQAGEADPNGCNFRSVLTIAFQFTFDNHSRDSVASMARQYVRSIVGSIQRVALAIAPRPGSNISPISVPTSPEALTLVRWISRSYSLHTGADLFGSDSQTSGDTLLHQLWNHSDAILCCSLKTNASPVFTFANQTGLDMLETTLVALQDIMLDKTLDEPGRKALCSEFPKIMQQGYAHLPAGVCASSMGRMVSYEQATVWKVLEDDESNHCLAFMFVNWSFV
With B2, the “stoichiometry N” value came out at 2.
